Reference: article PMC5385945 (Molecular Biology of the Cell, 2017)

Target: T1, Qc-SNARE Vam7 (wild type, naturally soluble) (S. cerevisiae, UniProt P32912 1-316)
T1 sequence (looked up): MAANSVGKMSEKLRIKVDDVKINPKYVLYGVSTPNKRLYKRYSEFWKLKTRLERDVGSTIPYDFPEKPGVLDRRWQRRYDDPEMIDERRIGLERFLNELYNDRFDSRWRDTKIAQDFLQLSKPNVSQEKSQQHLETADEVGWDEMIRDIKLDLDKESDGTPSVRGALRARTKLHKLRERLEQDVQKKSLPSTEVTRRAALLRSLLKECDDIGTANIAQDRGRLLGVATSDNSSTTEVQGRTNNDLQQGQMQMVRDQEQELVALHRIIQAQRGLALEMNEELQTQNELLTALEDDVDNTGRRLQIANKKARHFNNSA
Assay: co-flotation with proteoliposomes

binding result: binds
B1: Rab GTPase Ypt7, GTP-loaded, bound to proteoliposomes (natural protein, S. cerevisiae, UniProt P32939 1-208, looked up)
chain: MSSRKKNILKVIILGDSGVGKTSLMHRYVNDKYSQQYKATIGADFLTKEVTVDGDKVATMQVWDTAGQERFQSLGVAFYRGADCCVLVYDVTNASSFENIKSWRDEFLVHANVNSPETFPFVILGNKIDAEESKKIVSEKSAQELAKSLGDIPLFLTSAKNAINVDTAFEEIARSALQQNQADTEAFEDDYNDAINIRLDGENNSCSC
